Experimental findings from patent publication US20240325557A1 (INNATE PHARMA, published 2024) are described below.

One assay concerns the target T1, human PVR on CHO cells (human, UniProt P15151 28-417).
T1 construct: also called PVR (Nectin-5)
T1 sequence: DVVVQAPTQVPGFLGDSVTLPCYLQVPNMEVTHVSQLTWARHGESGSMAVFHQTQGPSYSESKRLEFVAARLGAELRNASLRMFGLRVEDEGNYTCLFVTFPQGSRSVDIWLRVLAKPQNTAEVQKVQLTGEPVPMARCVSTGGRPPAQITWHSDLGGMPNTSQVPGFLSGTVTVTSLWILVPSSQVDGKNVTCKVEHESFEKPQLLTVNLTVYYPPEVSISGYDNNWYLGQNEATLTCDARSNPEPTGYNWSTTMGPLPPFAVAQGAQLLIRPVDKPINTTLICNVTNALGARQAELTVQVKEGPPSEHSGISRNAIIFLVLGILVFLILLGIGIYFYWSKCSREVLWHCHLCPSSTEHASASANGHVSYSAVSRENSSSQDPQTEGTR
The assay is described as follows: flow cytometry on CHO cells expressing human PVR. How it is done:
(§1) Anti-Nectin-4 antibodies were tested by flow cytometry for binding to different CHO cell lines made to express respectively the human Nectin 1, Nectin 2, Nectin 3 and PVR proteins. The expression of each cell lines was controlled and validated with known respectively the anti-human Nectin1, anti-human Nectin2, anti-human Nectin3 and anti-human PVR antibodies. The mature amino acid sequence of the proteins expressed by the cells were as follows:
(§2) Nectin 1, Nectin 2, Nectin 3 and PVR proteins as in Example 12. […] Epitope mapping was carried out by assessing competition for binding to Nectin-4 by SPR as in Example 14.

The target of assay [1] is T2, human Nectin 1 on CHO cells (human, UniProt Q15223 31-517).
T2 sequence: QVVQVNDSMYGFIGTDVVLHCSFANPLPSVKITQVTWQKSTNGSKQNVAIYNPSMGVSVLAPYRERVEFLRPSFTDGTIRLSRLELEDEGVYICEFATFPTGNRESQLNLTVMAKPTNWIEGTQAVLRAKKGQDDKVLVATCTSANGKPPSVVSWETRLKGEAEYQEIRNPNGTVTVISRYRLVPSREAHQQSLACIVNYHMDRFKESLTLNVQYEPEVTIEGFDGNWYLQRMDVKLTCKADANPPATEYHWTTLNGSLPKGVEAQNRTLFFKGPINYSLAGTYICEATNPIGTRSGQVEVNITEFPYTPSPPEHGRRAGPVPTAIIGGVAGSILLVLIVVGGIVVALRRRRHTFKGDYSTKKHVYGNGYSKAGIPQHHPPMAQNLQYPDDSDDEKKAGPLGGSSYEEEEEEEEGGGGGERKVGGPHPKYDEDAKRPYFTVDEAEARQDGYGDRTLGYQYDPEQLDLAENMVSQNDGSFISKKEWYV
The assay is described as follows: flow cytometry on CHO cells expressing human Nectin 1. The method, then:
as §1, §2

B1: antibody 6A7 (antibody, human IgG1, V domains shown)
VH: QVQLKESGAELVKPGASVKLSCKASGYTFTSYWMHWVKQRPGHGLEWVGEIDPSDSYTNYNQKFKGKATLTIDKSSSTVYMQLSSLTSEDSAVYYCARSGNYDAMDYWGQGTSVTVSA
VL: DIVMTQAAFSSAVTLGTSASISCRSSKSLLHSNGITYLYWYLQKPGQSPHFLIYQMSNLASGVPDRFTSSGSGTDFTLRISRVEAEDVGVYYCAQNLELPWTFGGGTKLEIK
notes: also called CHG1-M-4N4-6A7
B1: the binding result (with human PVR on CHO cells; in assay [1]) was “no binding” each time.
